Experimental data: publication PMC3718021 (2013)
Residue numbers refer to the chain shown, from its start. Names may count otherwise.

Tests used:
Test in all cases: high-speed cosedimentation
[1] = biological target: platelet actin (85% β-actin, 15% γ-actin) (Homo sapiens, UniProt P60709)
γ-actin = γ-actin (Mus musculus, UniProt P63260)
α-skeletal F-actin = α-skeletal F-actin (Oryctolagus cuniculus, UniProt P68135)

B1: fascin-2 (protein)
chain: MPTNGLHQVLKIQFGLVNDADRYLTAESFGFKVNASAASLKRKQIWVLEPDPGQGTAVLFRSSHLGRYLSAEEDGRVACEMDQPGRDCRFLVLPQPDGRWVLQSEPHGRFFGGIEDRLSCFATAISPAELWTVHLAIHPQAHLLSVSRRRYVHLCLQEDEMAADGDMPWGVDALVTLIFQSRRYCLKSYDSRYLRSDGRLVWEPEAHACYTLEFKAGKLAFKDCDGRYLAPVGPAGTLKAGRNTRPSKDELFDLEQSHPQVVLVAANRRYISVRQGINVSANQDEELGHETFLMQIDQETKKCTFYSSTGGYWTLVTHGGIQATATQVSANTMFEIEWHGRRVALKASNGRFVCMKKNGQLAAISDFVGEDELFTLKLINRPLLVLRGLDGFVCHRRGSNQLDTNRSTYDVFHLSFRDGAYQIRGRGGGFWYTGSHGSVCSDGDLAEDFLFEFRERGRLAIRALSGKYLRGGASGLLRADADLPVGEALWEY
Kd [1]: 4.15 µM | Kd (γ-actin): 6.17 µM

B2: fascin-2 S39A (protein)
chain: B1 chain with S39A
Kd [1]: 3.91 µM

B3: fascin-2 p.R109H (protein)
chain: B1 chain with R109H
Kd (α-skeletal F-actin): 5.97 µM

B4: fascin-2 (protein)
chain: B1 chain
modifications: N-terminal flag tag, phalloidin-stabilized F-actin
Kd (α-skeletal F-actin): 4.95 µM
